Measurements published in patent US20190367592A1 (AC IMMUNE, published 2019).
“And” between values parts separate entries of the source, which are not always exact repeats. Equal values may be shown once.

What was measured:
[1] = target: T1, recombinant human Tau monomer, 2N4R isoform (amino acids 2-441) (human, UniProt P10636-8 2-441); assay: SPR screen, hIgG captured, Tau monomer analyte
T1 construct: range 2-441; N-terminal His-tag removed with TEV protease; also called monomeric Tau
From the text: Antibody 125B11-H3 was humanized onto VH3 and Vκ1 consensus frameworks. The heavy chain graft included murine residues at position 78 (Kabat numbering system). The Vκ1 graft included murine residues in framework positions 43 and 87. The light chain of 113F5-F7 was also humanized onto the Vκ1 framework, with additional murine residues at framework positions 43 and 87. Humanized variant heavy chains (125B11) and light chains (125B11 and 113F5-F7) were co-transfected in multiple combinations and purified in 96-well format as described above. Humanized variants were then screened for affinity for human Tau monomer using the Biacore human IgG capture kit, a Series S CM5 chip and a Biacore T200 instrument. Antibodies were diluted to 2 μg/ml and captured for 15 seconds at 10 μl/min. Association and dissociation of 0, 100 and 500 nM human Tau monomer in HBSP was monitored for 180s and 300s respectively at a flow rate of 40 μl/min. A 1:1 binding model was applied to the results (Table 9).

[2] = target: T1, recombinant human Tau monomer, 2N4R …; assay: SPR, mIgG2a captured, Tau monomer analyte, 1:1 fit
From the text: Antibody heavy and light chains were constructed via gene synthesis and subcloning of the resulting DNA into murine IgG2a (heavy chain) and murine kappa (light chain) mammalian expression vectors. Antibodies were expressed in CHO or 293T cells by transient co-transfection of the heavy chain and light chain plasmids and were purified with affinity resin MabSelectSure (GE Healthcare Life Sciences). Purified recombinant antibodies were screened for binding to Tau monomer protein on a Biacore T200 surface plasmon resonance instrument using a mouse IgG capture kit and a Series S CM5 chip. Antibodies in mIgG2a format diluted in 10 mM HEPES pH7.4, 150 mM NaCl, 0.05% Tween 20 (running buffer, HBSP) were captured for 30 or 45 seconds at a concentration of 1 μg/ml (antibodies 26C1, 94B2-C1, 52F6-F11.v1, 52F6-F11.v2, 11E10-B8, 55E7-F11, 125B1-H3, 123E9-A1, 30G1-B2, 66F5-A1, 89F4-A1, 93A8-D2 and 126F11-G11) or for 70 or 150 seconds at a concentration of 0.1 μg/ml (antibodies 19H6-F7, 3A4-H4, 54C1-H11 and 37D3-H9) using a flow rate of 10 μl/min. […] Association and dissociation times were monitored for 180-480 seconds and for 300-600 seconds respectively. Antibody 37D3-H9 was selected for further analysis due to the high affinity (Table 6) and the absence of NXS/T glycosylation motifs in the CDRs.

T1 sequence (P10636 other isoform, or with tags, fused parts or gaps limits assumed): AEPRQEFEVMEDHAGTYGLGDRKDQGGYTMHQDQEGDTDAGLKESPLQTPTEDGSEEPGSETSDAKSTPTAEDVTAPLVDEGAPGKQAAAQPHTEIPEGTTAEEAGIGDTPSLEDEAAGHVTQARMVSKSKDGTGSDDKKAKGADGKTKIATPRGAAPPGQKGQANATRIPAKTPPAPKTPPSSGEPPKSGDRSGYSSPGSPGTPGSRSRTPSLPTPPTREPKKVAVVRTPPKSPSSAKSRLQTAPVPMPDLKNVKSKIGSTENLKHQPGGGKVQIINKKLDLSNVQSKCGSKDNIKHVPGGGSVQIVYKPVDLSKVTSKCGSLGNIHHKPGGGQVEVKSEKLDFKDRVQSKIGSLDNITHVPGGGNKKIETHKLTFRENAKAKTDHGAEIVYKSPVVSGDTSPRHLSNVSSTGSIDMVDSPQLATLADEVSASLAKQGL

Binder	Kd [1]	other results
hu125B11 HC1 + hu113F5-F7 LC3 (antibody, V domains shown) VH: EVQLVESGGGLVQPGGSLRLSCAASRFIFSNYWMNWVRQAPGKGLEWVAQIRLKSDNYATHYAESVKGRFTISRDDSKNTVYLQMNSLRAEDTAVYYCTGGTTYWGQGTLVTVSS VL: DIQMTQSPSSLSASVGDRVTITCKASQNVGTAVAWYQQKPGKSPKLLIYSASRRFSGVPSRFSGSGSGTDFTLTISSLQPEDFATYYCQQFSTYPYTFGQGTKVEIK	61 nM	–
hu125B11 HC2 + 125B11 LC4 (antibody, V domains shown) VH: EVQLVESGGGLVQPGGSLRLSCAASRFIFSNYWMNWVRQAPGKGLEWVAQIRLKSDNYATHYAESVKGRFTISRDNSKNTVYLQMNSLRAEDTAVYYCTGGTTYWGQGTLVTVSS VL: DIQMTQSPSSLSASVGDRVTITCKASQNVGTAVAWYQQKPGKAPKLLIYSASIRYTGVPSRFSGSGSGTDFTLTISSLQPEDFATYYCQQFRTYPYTFGQGTKVEIK	22 nM	–
hu125B11 HC1 + 125B11 LC4 (antibody, V domains shown) VH: EVQLVESGGGLVQPGGSLRLSCAASRFIFSNYWMNWVRQAPGKGLEWVAQIRLKSDNYATHYAESVKGRFTISRDDSKNTVYLQMNSLRAEDTAVYYCTGGTTYWGQGTLVTVSS VL: DIQMTQSPSSLSASVGDRVTITCKASQNVGTAVAWYQQKPGKAPKLLIYSASIRYTGVPSRFSGSGSGTDFTLTISSLQPEDFATYYCQQFRTYPYTFGQGTKVEIK	23 nM	–
hu125B11 HC1 + hu113F5-F7 LC1 (antibody, V domains shown) VH: EVQLVESGGGLVQPGGSLRLSCAASRFIFSNYWMNWVRQAPGKGLEWVAQIRLKSDNYATHYAESVKGRFTISRDDSKNTVYLQMNSLRAEDTAVYYCTGGTTYWGQGTLVTVSS VL: DIQMTQSPSSLSASVGDRVTITCKASQNVGTAVAWYQQKPGKSPKLLIYSASRRFSGVPSRFSGSGSGTDFTLTISSLQPEDFATYFCQQFSTYPYTFGQGTKVEIK	57 nM	–
hu125B11 HC1 + hu113F5-F7 LC2 (antibody, V domains shown) VH: EVQLVESGGGLVQPGGSLRLSCAASRFIFSNYWMNWVRQAPGKGLEWVAQIRLKSDNYATHYAESVKGRFTISRDDSKNTVYLQMNSLRAEDTAVYYCTGGTTYWGQGTLVTVSS VL: DIQMTQSPSSLSASVGDRVTITCKASQNVGTAVAWYQQKPGKAPKLLIYSASRRFSGVPSRFSGSGSGTDFTLTISSLQPEDFATYFCQQFSTYPYTFGQGTKVEIK	67 nM	–
hu125B11 HC2 + hu113F5-F7 LC2 (antibody, V domains shown) VH: EVQLVESGGGLVQPGGSLRLSCAASRFIFSNYWMNWVRQAPGKGLEWVAQIRLKSDNYATHYAESVKGRFTISRDNSKNTVYLQMNSLRAEDTAVYYCTGGTTYWGQGTLVTVSS VL: DIQMTQSPSSLSASVGDRVTITCKASQNVGTAVAWYQQKPGKAPKLLIYSASRRFSGVPSRFSGSGSGTDFTLTISSLQPEDFATYFCQQFSTYPYTFGQGTKVEIK	68 nM	–
hu125B11 HC3 + 125B11 LC3 (antibody, V domains shown) VH: EVQLVESGGGLVQPGGSLRLSCAASRFIFSNYWMNWVRQAPGKGLEWVAQIRLKSDNYATHYAESVKGRFTISRDDSKNTLYLQMNSLRAEDTAVYYCTGGTTYWGQGTLVTVSS VL: DIQMTQSPSSLSASVGDRVTITCKASQNVGTAVAWYQQKPGKSPKLLIYSASIRYTGVPSRFSGSGSGTDFTLTISSLQPEDFATYYCQQFRTYPYTFGQGTKVEIK	20 nM	–
hu125B11 HC2 + 125B11 LC1 (antibody, V domains shown) VH: EVQLVESGGGLVQPGGSLRLSCAASRFIFSNYWMNWVRQAPGKGLEWVAQIRLKSDNYATHYAESVKGRFTISRDNSKNTVYLQMNSLRAEDTAVYYCTGGTTYWGQGTLVTVSS VL: DIQMTQSPSSLSASVGDRVTITCKASQNVGTAVAWYQQKPGKSPKLLIYSASIRYTGVPSRFSGSGSGTDFTLTISSLQPEDFATYFCQQFRTYPYTFGQGTKVEIK	18 nM	–
hu125B11 HC1 + 125B11 LC3 (antibody, V domains shown) VH: EVQLVESGGGLVQPGGSLRLSCAASRFIFSNYWMNWVRQAPGKGLEWVAQIRLKSDNYATHYAESVKGRFTISRDDSKNTVYLQMNSLRAEDTAVYYCTGGTTYWGQGTLVTVSS VL: DIQMTQSPSSLSASVGDRVTITCKASQNVGTAVAWYQQKPGKSPKLLIYSASIRYTGVPSRFSGSGSGTDFTLTISSLQPEDFATYYCQQFRTYPYTFGQGTKVEIK	21 nM	–
hu125B11 HC2 + hu113F5-F7 LC4 (antibody, V domains shown) VH: EVQLVESGGGLVQPGGSLRLSCAASRFIFSNYWMNWVRQAPGKGLEWVAQIRLKSDNYATHYAESVKGRFTISRDNSKNTVYLQMNSLRAEDTAVYYCTGGTTYWGQGTLVTVSS VL: DIQMTQSPSSLSASVGDRVTITCKASQNVGTAVAWYQQKPGKAPKLLIYSASRRFSGVPSRFSGSGSGTDFTLTISSLQPEDFATYYCQQFSTYPYTFGQGTKVEIK	77 nM	–
hu125B11 HC2 + 125B11 LC3 (antibody, V domains shown) VH: EVQLVESGGGLVQPGGSLRLSCAASRFIFSNYWMNWVRQAPGKGLEWVAQIRLKSDNYATHYAESVKGRFTISRDNSKNTVYLQMNSLRAEDTAVYYCTGGTTYWGQGTLVTVSS VL: DIQMTQSPSSLSASVGDRVTITCKASQNVGTAVAWYQQKPGKSPKLLIYSASIRYTGVPSRFSGSGSGTDFTLTISSLQPEDFATYYCQQFRTYPYTFGQGTKVEIK	23 nM	–
hu125B11 HC1 + hu113F5-F7 LC4 (antibody, V domains shown) VH: EVQLVESGGGLVQPGGSLRLSCAASRFIFSNYWMNWVRQAPGKGLEWVAQIRLKSDNYATHYAESVKGRFTISRDDSKNTVYLQMNSLRAEDTAVYYCTGGTTYWGQGTLVTVSS VL: DIQMTQSPSSLSASVGDRVTITCKASQNVGTAVAWYQQKPGKAPKLLIYSASRRFSGVPSRFSGSGSGTDFTLTISSLQPEDFATYYCQQFSTYPYTFGQGTKVEIK	71 nM	–
hu125B11 HC2 + hu113F5-F7 LC3 (antibody, V domains shown) VH: EVQLVESGGGLVQPGGSLRLSCAASRFIFSNYWMNWVRQAPGKGLEWVAQIRLKSDNYATHYAESVKGRFTISRDNSKNTVYLQMNSLRAEDTAVYYCTGGTTYWGQGTLVTVSS VL: DIQMTQSPSSLSASVGDRVTITCKASQNVGTAVAWYQQKPGKSPKLLIYSASRRFSGVPSRFSGSGSGTDFTLTISSLQPEDFATYYCQQFSTYPYTFGQGTKVEIK	64 nM	–
hu125B11 HC1 + 125B11 LC2 (antibody, V domains shown) VH: EVQLVESGGGLVQPGGSLRLSCAASRFIFSNYWMNWVRQAPGKGLEWVAQIRLKSDNYATHYAESVKGRFTISRDDSKNTVYLQMNSLRAEDTAVYYCTGGTTYWGQGTLVTVSS VL: DIQMTQSPSSLSASVGDRVTITCKASQNVGTAVAWYQQKPGKAPKLLIYSASIRYTGVPSRFSGSGSGTDFTLTISSLQPEDFATYFCQQFRTYPYTFGQGTKVEIK	20 nM	–
hu125B11 HC2 + hu113F5-F7 LC1 (antibody, V domains shown) VH: EVQLVESGGGLVQPGGSLRLSCAASRFIFSNYWMNWVRQAPGKGLEWVAQIRLKSDNYATHYAESVKGRFTISRDNSKNTVYLQMNSLRAEDTAVYYCTGGTTYWGQGTLVTVSS VL: DIQMTQSPSSLSASVGDRVTITCKASQNVGTAVAWYQQKPGKSPKLLIYSASRRFSGVPSRFSGSGSGTDFTLTISSLQPEDFATYFCQQFSTYPYTFGQGTKVEIK	61 nM	–
hu125B11 HC2 + 125B11 LC2 (antibody, V domains shown) VH: EVQLVESGGGLVQPGGSLRLSCAASRFIFSNYWMNWVRQAPGKGLEWVAQIRLKSDNYATHYAESVKGRFTISRDNSKNTVYLQMNSLRAEDTAVYYCTGGTTYWGQGTLVTVSS VL: DIQMTQSPSSLSASVGDRVTITCKASQNVGTAVAWYQQKPGKAPKLLIYSASIRYTGVPSRFSGSGSGTDFTLTISSLQPEDFATYFCQQFRTYPYTFGQGTKVEIK	20 nM	–
hu125B11 HC3 + 125B11 LC2 (antibody, V domains shown) VH: EVQLVESGGGLVQPGGSLRLSCAASRFIFSNYWMNWVRQAPGKGLEWVAQIRLKSDNYATHYAESVKGRFTISRDDSKNTLYLQMNSLRAEDTAVYYCTGGTTYWGQGTLVTVSS VL: DIQMTQSPSSLSASVGDRVTITCKASQNVGTAVAWYQQKPGKAPKLLIYSASIRYTGVPSRFSGSGSGTDFTLTISSLQPEDFATYFCQQFRTYPYTFGQGTKVEIK	19 nM	–
hu125B11 HC1 + 125B11 LC1 (antibody, V domains shown) VH: EVQLVESGGGLVQPGGSLRLSCAASRFIFSNYWMNWVRQAPGKGLEWVAQIRLKSDNYATHYAESVKGRFTISRDDSKNTVYLQMNSLRAEDTAVYYCTGGTTYWGQGTLVTVSS VL: DIQMTQSPSSLSASVGDRVTITCKASQNVGTAVAWYQQKPGKSPKLLIYSASIRYTGVPSRFSGSGSGTDFTLTISSLQPEDFATYFCQQFRTYPYTFGQGTKVEIK	16 nM and 19 nM	–
66F5-A1 (antibody, mouse IgG2a, V domains shown) VH: QVQLQQSGAELVRPGASVTLSCKASGYTFIDYEMNWVKQTPVHGLEWIGAIDPENGGTAYNQKFKGKAIVTADKSSSTAYMELRSLTSEDSAVYYCSGPHFDYWGQGTTLTVSS VL: not shown	–	Kd [2]: 105 nM; koff [2]: 0.008 s⁻¹; kon [2]: 80000 M⁻¹ s⁻¹
